According to IntAct's records for PubMed 17855368:

B1: DNA-binding protein inhibitor ID-1 (Homo sapiens), P41134 (parent)
chain: MKVASGSTATAAAGPSCALKAGKTASGAGEVVRCLSEQSVAISRCAGGAGARLPALLDEQQVNVLLYDMNGCYSRLKELVPTLPQNRKVSKVEILQHVIDYIRDLQLELNSESEVGTPGGRGLPVRAPLSTLNGEISALTAEAACVPADDRILCR

Variants of: B1
Details: with cav1_human CAV1, Q03135
Chain of cav1_human CAV1, Q03135 (Q03135 whole entry): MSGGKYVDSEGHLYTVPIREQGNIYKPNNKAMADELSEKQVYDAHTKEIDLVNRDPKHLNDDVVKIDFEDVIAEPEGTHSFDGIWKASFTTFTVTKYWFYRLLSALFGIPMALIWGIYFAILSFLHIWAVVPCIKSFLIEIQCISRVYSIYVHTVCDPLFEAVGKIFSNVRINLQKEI

Variant	effect of a mutation on the interaction
MKVASGSTATAAAGPSCALKAGKTASGAGEVVRCLSEQSVAISRCAGGAGARLPALLDEQQVNVLLYDMNGCYSRLKELVPTLPQNRKVSKVEILQHVIDDIRDLQLELNSESEVGTPGGRGLPVRAPLSTLNGEISALTAEAACVPADDRILCR [Y101D]	decreasing interaction
